The values that follow come from paper PMC8460447 (Nature chemical biology, 2021).

This assay has as its target neddylated CUL5 (human, UniProt Q93034 1-780, Lys724 isopeptide-linked to NEDD8). Nature of the assay: cryo-EM structure.

neddylated CUL5, sequence (Q93034 whole entry): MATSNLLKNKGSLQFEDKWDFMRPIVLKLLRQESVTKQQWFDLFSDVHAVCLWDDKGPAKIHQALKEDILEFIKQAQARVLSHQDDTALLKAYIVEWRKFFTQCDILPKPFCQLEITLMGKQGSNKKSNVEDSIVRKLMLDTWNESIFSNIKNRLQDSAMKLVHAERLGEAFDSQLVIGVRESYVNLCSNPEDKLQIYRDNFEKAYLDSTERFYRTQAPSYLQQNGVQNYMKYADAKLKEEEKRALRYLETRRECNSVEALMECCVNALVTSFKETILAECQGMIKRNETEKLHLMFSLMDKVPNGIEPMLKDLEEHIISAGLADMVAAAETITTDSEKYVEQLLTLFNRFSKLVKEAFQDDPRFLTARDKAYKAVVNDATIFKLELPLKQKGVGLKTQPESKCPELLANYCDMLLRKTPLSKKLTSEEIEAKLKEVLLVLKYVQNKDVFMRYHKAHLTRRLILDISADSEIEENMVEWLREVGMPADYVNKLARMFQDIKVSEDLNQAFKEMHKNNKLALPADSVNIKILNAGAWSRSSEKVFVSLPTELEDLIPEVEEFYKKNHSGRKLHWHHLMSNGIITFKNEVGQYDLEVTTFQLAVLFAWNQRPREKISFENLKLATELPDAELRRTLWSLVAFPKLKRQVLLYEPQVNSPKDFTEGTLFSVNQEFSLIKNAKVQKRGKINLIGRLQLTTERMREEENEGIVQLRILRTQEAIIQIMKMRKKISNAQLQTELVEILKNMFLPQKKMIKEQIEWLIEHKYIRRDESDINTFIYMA

B1: ARIH2* (full-length ARIH2 with L381A, E382A and E455A residue substitutions) (enzyme)
chain: MSVDMNSQGSDSNEEDYDPNCEEEEEEEEDDPGDIEDYYVGVASDVEQQGADAFDPEEYQFTCLTYKESEGALNEHMTSLASVLKVSHSVAKLILVNFHWQVSEILDRYKSNSAQLLVEARVQPNPSKHVPTSHPPHHCAVCMQFVRKENLLSLACQHQFCRSCWEQHCSVLVKDGVGVGVSCMAQDCPLRTPEDFVFPLLPNEELREKYRRYLFRDYVESHYQLQLCPGADCPMVIRVQEPRARRVQCNRCNEVFCFKCRQMYHAPTDCATIRKWLTKCADDSETANYISAHTKDCPKCNICIEKNGGCNHMQCSKCKHDFCWMCLGDWKTHGSEYYECSRYKENPDIVNQSQQAQAREALKKYLFYFERWENHNKSLQAAAQTYQRIHEKIQERVMNNLGTWIDWQYLQNAAKLLAKCRYTLQYTYPYAYYMESGPRKKLFEYQQAQLEAEIANLSWKVERADSYDRGDLENQMHIAEQRRRTLLKDFHDT
For B1, the binding result is given as “binds”.

B2: RBX2 (natural protein)
chain: EDGEETCALASHSGSSGSKSGGDKMFSLKKWNAVAMWSWDVECDTCAICRVQVMDACLRCQAENKQEDCVVVWGECNHSFHNCCMSLWVKQNNRCPLCQQDWVVQRIGK
As to B2, the binding result was “binds”.
